Target: T1, recombinant COMA (Ctf19-Okp1-Mcm21-Ame1) inner kinetochore sub-complex (budding yeast (S. cerevisiae), UniProt P53298 1-406; P38313 1-324; Q02732 1-369; Q06675 1-368)
T1 construct: Okp1, budding yeast, essential COMA component; His-Okp1 printed as 49 kDa; Ame1, budding yeast, essential COMA component; printed as 37 kDa; Ctf19, budding yeast, non-essential COMA component; 'coding regions' cloned; printed as 43 kDa; Mcm21, budding yeast, non-essential COMA component; also called COMA components; source: E. coli RosettaGami2(DE3)pLysS, four subunits co-expressed, purified …
Test: pull-down; GST fusion proteins incubated with purified COMA in 50 mM HEPES-NaOH pH 7.4, 150 mM NaCl, 5% glycerol, 0.05% Igepal, 2 mM DTT, 0.5 mM EDTA, 20 min at 4°C, then 1 h on GST-Trap Agarose at 4°C, three washes; Coomassie blue staining, anti-His western blot and mass spectrometry
Conditions: both partners purified

T1 sequence (P53298 whole entry, chain 1 of 4): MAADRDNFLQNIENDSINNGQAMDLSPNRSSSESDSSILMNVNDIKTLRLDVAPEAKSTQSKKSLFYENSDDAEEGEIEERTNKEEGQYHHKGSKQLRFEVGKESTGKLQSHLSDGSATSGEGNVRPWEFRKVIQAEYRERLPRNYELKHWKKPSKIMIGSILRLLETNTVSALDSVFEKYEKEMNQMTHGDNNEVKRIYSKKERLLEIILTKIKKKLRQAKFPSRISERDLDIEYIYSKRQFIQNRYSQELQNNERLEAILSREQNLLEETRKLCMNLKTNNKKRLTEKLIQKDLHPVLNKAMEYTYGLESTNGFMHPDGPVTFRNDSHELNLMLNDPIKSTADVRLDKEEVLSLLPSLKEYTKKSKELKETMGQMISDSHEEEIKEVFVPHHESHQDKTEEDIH
T1 sequence (P38313 whole entry, chain 2 of 4): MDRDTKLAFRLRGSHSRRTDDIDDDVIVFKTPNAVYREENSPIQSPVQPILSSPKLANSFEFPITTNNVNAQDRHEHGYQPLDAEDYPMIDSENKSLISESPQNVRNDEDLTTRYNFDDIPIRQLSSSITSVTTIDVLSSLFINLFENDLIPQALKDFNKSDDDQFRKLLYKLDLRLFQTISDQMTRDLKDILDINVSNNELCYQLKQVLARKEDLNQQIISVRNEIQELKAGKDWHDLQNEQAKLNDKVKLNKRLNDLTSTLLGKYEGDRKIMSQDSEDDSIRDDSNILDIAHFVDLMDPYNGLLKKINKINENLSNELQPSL
T1 sequence (Q02732 whole entry, chain 3 of 4): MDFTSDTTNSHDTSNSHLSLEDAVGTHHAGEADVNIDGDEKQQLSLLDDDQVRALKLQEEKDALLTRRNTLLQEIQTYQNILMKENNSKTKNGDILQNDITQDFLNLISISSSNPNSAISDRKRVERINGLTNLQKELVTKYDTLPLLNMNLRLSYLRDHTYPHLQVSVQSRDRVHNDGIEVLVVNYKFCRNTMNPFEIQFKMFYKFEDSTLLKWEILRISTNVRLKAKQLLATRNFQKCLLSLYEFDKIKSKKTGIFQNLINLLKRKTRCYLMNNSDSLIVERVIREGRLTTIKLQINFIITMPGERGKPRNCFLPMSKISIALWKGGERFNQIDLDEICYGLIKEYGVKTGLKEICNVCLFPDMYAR
T1 sequence (Q06675 whole entry, chain 4 of 4): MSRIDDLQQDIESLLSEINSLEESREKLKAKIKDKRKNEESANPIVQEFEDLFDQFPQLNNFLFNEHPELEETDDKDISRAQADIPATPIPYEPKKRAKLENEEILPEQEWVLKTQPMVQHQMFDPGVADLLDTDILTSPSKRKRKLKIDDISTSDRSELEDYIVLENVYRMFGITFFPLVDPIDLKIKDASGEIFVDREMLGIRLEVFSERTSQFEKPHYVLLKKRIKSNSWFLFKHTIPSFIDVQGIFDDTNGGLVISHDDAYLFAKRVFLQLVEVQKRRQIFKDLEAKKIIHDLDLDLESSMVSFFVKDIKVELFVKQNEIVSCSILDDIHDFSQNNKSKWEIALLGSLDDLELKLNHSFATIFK

| binding result | Binder |
| --- | --- |
| binds | GST-Sli15 (1-401 aa) (domain or fragment, budding yeast (S. cerevisiae), UniProt P38283 1-401, looked up, Printed size 72 kDa; source: E. coli RosettaGami2, purified (GSTrap FF, Superdex 200)) MDWAIKAARKKTQRKPGSTRSIIETLDDLNNLTTDAHSEINQRLYESSEWLRNNVYMNTLKYEDKKMEESLISPENTHNKMDVEFPKMKGEYELSNSQNDAAKDVTKTPRNGLHNDKSITPKSLRRKEVTEGMNRFSIHDTNKSPVEPLNSVKVDANESEKSSPWSPYKVEKVLRESSKTSESPINTKRFDNQTWAAKEEMENEPILQALKKAESVKVKPPPNSGIARSQRRSNMFVPLPNKDPLIIQHIPPTKSSGSIPKVRTVKESPIAFKKKSTINSPAIRAVENSDTAGSTKASSVFDRLSSIPTKSFENKISRGNVGHKYSSSSIDLTGSPMKKVSQKFKSINSTDTDMQEALRDIFSVKNKITKNNSPKGKNSRKSSIPRFDKTSLKLTTHKKLA |
| binds | GST-Sli15 (393-698 aa) (domain or fragment, budding yeast (S. cerevisiae), UniProt P38283 393-698, looked up, Sli15 (yeast INCENP), budding yeast, residues 393-698; Printed size 60 kDa; also called pGEX6P-1-GST-SLI15 (393-698); source: E. coli RosettaGami2, purified (GSTrap FF, Superdex 200)) KLTTHKKLAIIAEQKKKSKHSSDVHKTGSRPHSISPTKISVDSSSPSKEVKNYYQSPVRGYLRPTKASISPNKNKNLTTSQTPHRLKIKEKTLRKLSPNIADISKPESRKSKNYRLTNLQLLPPAEAERDDLKKKFDKRLSGIMRSQQEHHRRKQEKQKRMSHLEQDLKKQTSFSNDYKDIRLKESLAPFDNHVRDTINKNTAFSTDNILATINTVDHREIIGNVTPKIASVNDSLPEINTDSEDEASVTLAAWAKSPYLQEQLIRQQDINPQTIFGPIPPLHTDEIFPNPRLNRLKPRQIVPKRS |
